Assay results as given in patent publication US20170151309A1.
Where two headings read alike, the source gives them in different places.

Experiments:
Test in all cases: cell-based or functional assay
[1] = biological target: adiponectin receptor 1 (human) (UniProt Q96A54)
[2] = biological target: adiponectin receptor 2 (human) (UniProt Q86V24)
[3] = biological target: adiponectin receptor 1 (human) (UniProt Q96A54); remark: listed apart in the source
[4] = biological target: adiponectin receptor 2 (human) (UniProt Q86V24); remark: listed apart in the source

adiponectin receptor 1 (human), sequence (Q96A54 whole entry): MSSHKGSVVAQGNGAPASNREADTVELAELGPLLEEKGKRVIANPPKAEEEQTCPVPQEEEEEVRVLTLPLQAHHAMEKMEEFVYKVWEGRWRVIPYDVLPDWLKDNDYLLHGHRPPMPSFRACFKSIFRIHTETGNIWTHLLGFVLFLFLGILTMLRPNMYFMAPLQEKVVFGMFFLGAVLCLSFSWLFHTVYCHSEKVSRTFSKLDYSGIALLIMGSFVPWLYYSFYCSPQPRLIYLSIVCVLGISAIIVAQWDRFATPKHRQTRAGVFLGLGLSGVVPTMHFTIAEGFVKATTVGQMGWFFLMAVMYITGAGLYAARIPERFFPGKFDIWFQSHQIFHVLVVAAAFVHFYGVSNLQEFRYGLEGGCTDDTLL
adiponectin receptor 2 (human), sequence (Q86V24 whole entry): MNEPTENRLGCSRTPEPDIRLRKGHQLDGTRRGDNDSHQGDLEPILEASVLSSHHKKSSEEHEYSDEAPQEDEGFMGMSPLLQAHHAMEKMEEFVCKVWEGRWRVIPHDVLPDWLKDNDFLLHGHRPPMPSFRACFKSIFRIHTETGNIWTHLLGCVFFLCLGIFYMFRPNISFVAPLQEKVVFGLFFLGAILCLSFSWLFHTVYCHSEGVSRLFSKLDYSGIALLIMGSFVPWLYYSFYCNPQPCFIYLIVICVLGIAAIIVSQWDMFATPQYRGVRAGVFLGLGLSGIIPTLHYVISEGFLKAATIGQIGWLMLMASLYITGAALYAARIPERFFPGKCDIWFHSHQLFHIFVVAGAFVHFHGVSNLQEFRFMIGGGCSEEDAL

Substance: adiponectin (from UniProt Q15848 19-244) (ligand)
- EC50 of inhibition of PBL transendothelial migration (static adhesion assay) [1]: 0.94 µg/mL
- EC50 of inhibition of PBL transendothelial migration (static adhesion assay) [2]: 0.94 µg/mL
- EC50 of inhibition of PBL transendothelial migration (static adhesion assay) [3]: 40 nM
- EC50 of inhibition of PBL transendothelial migration (static adhesion assay) [4]: 40 nM
